The test system of test [1] is U87MG cells. Kind of test: U87MG growth in semi-solid (soft) agar. Type of test: cell-based, human. Conditions: Alamar Blue. On the procedure: […] Approximately 15,000 cells±treatment were resuspended in 150 μl medium containing 0.3% agar, and seeded onto a well of a 24-well plate previously layered with 250 μl 0.6% agar. The solidified cell layer was covered with 50 μl DME±treatment which was replaced every three days over a 21 day period. Phase contrast images (6 fields/well) were captured using a digital video camera (Olympus U-CMT) and analyzed with Northern Eclipse v.5.0 software. Color images were transformed to grey scale, thresholded, and then converted to binary images. Number and area of colonies per field were calculated. In order to measure cell viability, at the end of the experiment, 40 μl alamar blue was added to each well and fluorescence readings were performed every 10 min for a period of 180 min. Experiments were repeated 2-3 times in triplicates.

Test [2] deals with U87MG cells. The conditions noted are these: disclosed in copending PCT/CA2006/000250; cited from earlier work.
The target of another test is T1, cathepsin B (Homo sapiens, UniProt P07858).
T1 construct: Levels of cathepsin B activity were also measured in U87MG CM alone or pre-incubated; endogenous in cells; host or cells: U87MG (ATCC), 3-day serum-free conditioned medium
The test is described as follows: Intracellular cathepsin B activity in HBEC seeded on Matrigel (Magic Red). Type of test: cell-based. The conditions noted are these: 20 nM. On the procedure: (§1) In vitro angiogenesis was assessed by endothelial tube formation in growth factor reduced Matrigel™ (BD Bioscience, Bedford, Mass.). 24-well plates were coated with 300 μl of unpolymerized Matrigel™ (5-7 mg prot/ml) and allowed to polymerize for 90 min at 37° C. HBEC (40,000 cells) were suspended in 500 μl of either DME, serum-free U87MG CM (collected as described in Cell Cultures) or growth factors (VEGF, IGF-1, bFGF) in the absence or presence of 20 nM of either full length recombinant IGFBP-1 (IBP1, produced at BRI-NRC), IGFBP-2 (IBP2, produced at BRI-NRC and purchased from R&D systems, Minneapolis), IGFBP-3 (IBP3, from R&D systems), IGFBP-4 (IBP4, produced at BRI-NRC), IGFBP-5 (IBP5, produced at BRI-NRC and purchased from R&D systems) and IGFBP-6 (IBP6, from R&D systems) or the C-terminal protein fragments of IGFP-1 (CIBP1), IGFBP-2 (CIBP2), IGFBP-4 (CIBP4), IGFBP-5 (CIBP5) and IGFBP-6 (CIBP6), all produced at BRI-NRC). The ability of a synthetic membrane permeable cathepsin B inhibitor (CA074-ME, EMD Biosciences, Canada) to inhibit angiogenes and cathepsin B activity was also studied. CLT formation was analyzed after 24 h using an Olympus 1×50 microscope. Phase contrast images were captured with a digital video camera (Olympus U-CMT) and analyzed using Northern Eclipse v.5.0 software. Experiments were repeated three times. In order to determine the levels of cathepsin B activity in each experimental condition, at the end of the experiment, 6 μl of 26× Magic Red™ Cathepsin B reagent (Immunochemistry Technologies, LLC) were added to all the wells and maintained at 37° C. in dark for two hours. Cells were washed twice with HBSS and intracellular fluorescence quantification (530/25 nm excitation and 645/40 nm emission) was performed using a cytofluorimeter plate reader (Bio-Tek FL600).
To determine the ability of these angiogenic factors to stimulate cathepsin B activity in HBEC, a membrane permeable cathepsin B target sequence peptide (Arginine-Arginine) linked to an amide substituted fluorophore, cresyl violet (Magic Red™, Immunochemistry Technologies, LLC) was used. Following enzyme cleavage at the arginine amide linkage site, the cresyl violet fluorophore generates red fluorescence when excited at 550-590 nm.

In test [3] the test system is human brain endothelial cells (HBEC). Kind of test: Capillary-like tube (CLT) formation by HBEC on Matrigel (in vitro angiogenesis). The conditions noted are these: 20 nM, HBEC on Matrigel. The test is classed as cell-based. On the procedure: Human brain endothelial cells (HBEC) were obtained from small intracortical microvessels and capillaries (20-112 μm) harvested from temporal cortex from patients treated surgically for idiopathic epilepsy. Tissues were obtained with approval from the Institutional Research Ethics Committee. HBEC were separated from smooth muscle cells with cloning rings and grown at 37° C. in HBEC media containing Earle's salts, 25 mM 4-(2-hydroxyethyl)-1-piperazineethanesulfonic acid (HEPES), 4.35 g/L sodium bicarbonate, and 3 mM L-glutamine, 10% FBS, 5% human serum, 20% of media conditioned by murine melanoma cells (mouse melanoma, Cloudman S91, clone M-3, melanin-producing cells), 5 μg/ml insulin, […], 5 ng/ml selenium, and 10 μg/ml endothelial cell growth supplement. HBEC cultures were routinely characterized morphologically and biochemically.
as §1

Take `CCCC(=O)Nc1ncnc2c1ncn2[C@@H]1O[C@@H]2COP(=O)(O)O[C@H]2[C@H]1OC(=O)CCC` [dB-cAMP, dybutyril cAMP, reference compound]: in the test with U87MG cells [1] (500 μg/ml dB-cAMP, positive control), the “inhibition of U87MG colony formation in soft agar (efficacy)” value (“inhibition of U87MG colony formation” for short) is around 65%.

B1: IGFBP-4: recombinant full-length IGFBP-4 (SEQ ID No. 5) with StreptagII-octahistidine tag (protein)
chain: MLPLCLVAALLLAAGPGPSLGDEAIHCPPCSEEKLARCRPPVGCEELVREPGCGCCATCALGLGMPCGVYTPRCGSGLRCYPPRGVEKPLHTLMHGQGVCMELAEIEAIQESLQPSDKDEGDHPNNSFSPCSAHDRRCLQKHFAKIRDRSTSGGKMKVNGAPREDARPVPQGSCQSELHRALERLAASQSRTHEDLYIIPIPNCDRNGNFHPKQCHPALDGQRGKCWCVDRKTGVKLPGGLEPKGELDCHQLADSFREVDPWSHPQFEKTGHHHHHHHHGGQ
modifications: StreptagII-octahistidine tag; human
For the molecule B1, the “reduction of U87MG colony formation in soft agar” value with U87MG cells [2] is “able to reduce U87MG colony formation”.

B2: CIBP6: IGFBP-6 C-terminal fragment (aas 151-240, SEQ ID No. 10) with octahistidine tag (protein)
chain: MGELLLLLLLGLRLQLSLGIARNSAGVQDTEMGPCRRHLDSVLQQLQTEVYRGAQTLYVPNCDHRGFYRKRQCRSSQGQRRGPCWCVDRMGKSLPGSPDGNGSSSCPTGSSGSSTGHHHHHHHHG
modifications: octahistidine tag; C-terminal fragment of IGFBP-6
Take B2: the “inhibition of U87MG colony formation” value in the test with U87MG cells [1] (20 nM) is around 25%.

B3: IBP2: recombinant full-length IGFBP-2 (aas 1-328, SEQ ID No. 3); produced at BRI-NRC and purchased from R&D systems (protein)
chain: MLPRVGCPALPLPPPPLLPLLPLLLLLLGASGGGGGARAEVLFRCPPCTPERLAACGPPPVAPPAAVAAVAGGARMPCAELVREPGCGCCSVCARLEGEACGVYTPRCGQGLRCYPHPGSELPLQALVMGEGTCEKRRDAEYGASPEQVADNGDDHSEGGLVENHVDSTMNMLGGGGSAGRKPLKSGMKELAVFREKVTEQHRQMGKGGKHHLGLEEPKKLRPPPARTPCQQELDQVLERISTMRLPDERGPLEHLYSLHIPNCDKHGLYNLKQCKMSLNGQRGECWCVNPNTGKLIQGAPTIRGDPECHLFYNEQQEARGVHTQRMQGSGWSHPQFEKTGHHHHHHHHGGQ
modifications: human
notes: produced at BRI-NRC and purchased from R&D systems
As to B3, in the test with cathepsin B (IGF-1 (150 ng/ml)), the “inhibition of intracellular cathepsin B activity induced by IGF-1” value is listed as “completely inhibit”. Moreover, in the test with cathepsin B (U87MG CM), the “inhibition of intracellular cathepsin B activity induced by U87MG CM” value was “did not inhibit”. Also, in the test with cathepsin B (VEGF (20 ng/ml)), the “inhibition of intracellular cathepsin B activity induced by VEGF” value was “completely inhibit”. For the same molecule, the “inhibition of intracellular cathepsin B activity induced by bFGF” value with cathepsin B (bFGF (20 ng/ml)) is listed as “did not inhibit”. In addition, in test [3] (IGF-1 (150 ng/ml)), the “inhibition of angiogenic response induced by IGF-1” value was “completely inhibit”. Also, the “inhibition of angiogenic response induced by U87MG CM” value in test [3] (U87MG CM) is “did not inhibit”. In addition, in test [3] (VEGF (20 ng/ml)), the “inhibition of angiogenic response induced by VEGF” value is “completely inhibit”. Further, the “inhibition of angiogenic response induced by bFGF” value in test [3] (bFGF (20 ng/ml)) was “did not inhibit”.

B4: CIBP1: IGFBP-1 C-terminal domain (aa 170-259, SEQ ID No. 2) with octahistidine tag (protein)
chain: MGELLLLLLLGLRLQLSLGIASKKWKEPCRIELYRVVESLAKAQETSGEEISKFYLPNCNKNGFYHSRQCETSMDGEAGLCWCVYPWNGKRIPGSPEIRGDPNCQIYFNVQASSGSSTGHHHHHHHHG
modifications: octahistidine tag; C-terminal fragment of IGFBP-1
B4: the “inhibition of U87MG colony formation” value in the test on U87MG cells [1] (20 nM) is around 25%.

The record behind these values is patent US20100279937A1, “Method of Inhibiting Angiogenesis, Tumorigenesis and Cathepsin Activity” (priority 2006, published 2010).
